Measured values published in patent publication US10357539B2, “Use of peptides that block metadherin-SND1 interaction as treatment for cancer” (THE TRUSTEES OF PRINCETON UNIVERSITY, priority 2014, dated 2019).
Changes are numbered by the printed parent chain. In names and notes the source's numbering stands.

B1: TPM1: MTDH triple-point mutant D389R, D393R and W394D (protein)
chain: YQWDVSRNQPYIDDEWSGLNGLSSARPNSRDNAPAEEWGNWVDEERASLLKSQEPIPDDQKVSDDDKEKGEGALPTGKSKKKKKKKKKQGEDNSTAQDTEELEKEIREDLPVNTSKTRPKQEKAFSLKTISTSDPAEVLVKNSQPIKTLPPATSTEPSVILSKSDSDKSSSQVPPILQETDKSKSNTKQNSVPPSQTKSETSWESPKQIKKKKKARRET
modifications: left off: a dimerising Fc or GST
notes: MTDH triple-point mutant D389R, D393R and W394D
B2: TPM2: MTDH triple-point mutant E399R, E400R and W401D (protein)
chain: B1 chain with R26D, R30D, D31W, E36R, E37R, W38D
modifications: left off: a dimerising Fc or GST
notes: MTDH triple-point mutant E399R, E400R and W401D

Legend:
PyMT;Mtdh−/− pMECs = assay: CPT-induced apoptosis of MECs (PI and Hoechst staining); assay type: cell-based, mouse; conditions: CPT to induce DNA replication stress
Method: (§1) FIGS. 9A-I illustrates that MTDH confers survival advantage by interacting with and stabilizing pro-survival protein SND1 under stress. (FIG. 9A) Quantification of cleaved caspase 3-positive MECs from normal or MMTV-PyMT preneoplastic glands (n>3) of WT (left column) or KO females (right column). (FIG. 9B) The effect of CPT on the apoptosis of PyMT;Mtdh−/− pMECs reconstituted with indicated Mtdh constructs (left column: VEC; middle column: WT; right column: W391D) was determined by PI and Hoechst staining. (FIG. 9C) The effect of CPT on the apoptosis of control (left column) or SND1-KD (right column) PyMT;Mtdh+/+ pMECs. (FIG. 9D) Protein levels of SND1 and β-actin (loading control) in control or MTDH-KD PyMT;Mtdh+/+ pMECs treated with CPT at indicated concentrations for 36 hours. Degradation curve (right) represents the average of 3 independent experiments. (FIG. 9E) Western blotting of SND1, MTDH and β-actin (loading control) in PyMT;Mtdh−/− MECs reconstituted with indicated constructs after CPT treatment for 48 hours. Degradation curves (right) represent average of 3 independent experiments. […] Z scores were calculated based on gene expression changes and gene functions as specified by the ingenuity knowledge base. […]

SND1 [1] = assay: SND1 protein levels in MECs treated with CPT (western blot); assay type: cell-based, mouse; conditions: PyMT;Mtdh+/+ pMECs, CPT at indicated concentrations for 36 hours
Method: as §1

SND1 [2] = target: T1, SND1 (Homo sapiens, UniProt Q7KZF4); assay: GST-mediated pull-down of SND1 by GST-tagged MTDH fragments and mutants; assay type: binding; conditions: His6-SND1ΔC (1-339); Coomassie blue staining
T1 construct: 15 μg of His-SND1 (16-339) was added to the resin; made in house; host or cells: E. coli DH5α
T1 sequence (Q7KZF4 1-339): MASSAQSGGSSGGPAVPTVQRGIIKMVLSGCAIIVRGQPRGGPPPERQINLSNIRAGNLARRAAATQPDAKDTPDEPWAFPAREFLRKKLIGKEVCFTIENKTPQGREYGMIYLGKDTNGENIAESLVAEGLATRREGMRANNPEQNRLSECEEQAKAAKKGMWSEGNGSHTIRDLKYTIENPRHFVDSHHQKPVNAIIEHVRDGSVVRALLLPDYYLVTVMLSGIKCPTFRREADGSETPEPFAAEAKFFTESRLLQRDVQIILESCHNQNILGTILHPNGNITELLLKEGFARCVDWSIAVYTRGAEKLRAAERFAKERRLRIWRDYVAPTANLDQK
In short: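 GST-MTDH fragments or mutants (~20 μg) on glutathione resin incubated with 15 μg His-SND1 (16-339) in 25 mM Tris pH 8.0, 150 mM NaCl, 3 mM DTT plus 2 mg/ml BSA. Bound protein resolved by SDS-PAGE, Coomassie-stained; bound SND1 ratio quantified by densitometry over 3 repeats.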

SND1 [3] = target: T2, SND1 (Homo sapiens, UniProt Q7KZF4); assay: Co-immunoprecipitation of full-length Myc-MTDH (WT or mutant) and HA-SND1 in HEK293T cells; assay type: cell-based; conditions: HEK293T cell lysates, immunoprecipitation and immunoblot
T2 construct: Full-length HA-tagged SND1 was co-expressed with full-length Myc-tagged wild-type (WT) or mutant MTDH in HEK293T cells; expressed in transfected cells; host or cells: HEK293T
T2 sequence (Q7KZF4 1-910): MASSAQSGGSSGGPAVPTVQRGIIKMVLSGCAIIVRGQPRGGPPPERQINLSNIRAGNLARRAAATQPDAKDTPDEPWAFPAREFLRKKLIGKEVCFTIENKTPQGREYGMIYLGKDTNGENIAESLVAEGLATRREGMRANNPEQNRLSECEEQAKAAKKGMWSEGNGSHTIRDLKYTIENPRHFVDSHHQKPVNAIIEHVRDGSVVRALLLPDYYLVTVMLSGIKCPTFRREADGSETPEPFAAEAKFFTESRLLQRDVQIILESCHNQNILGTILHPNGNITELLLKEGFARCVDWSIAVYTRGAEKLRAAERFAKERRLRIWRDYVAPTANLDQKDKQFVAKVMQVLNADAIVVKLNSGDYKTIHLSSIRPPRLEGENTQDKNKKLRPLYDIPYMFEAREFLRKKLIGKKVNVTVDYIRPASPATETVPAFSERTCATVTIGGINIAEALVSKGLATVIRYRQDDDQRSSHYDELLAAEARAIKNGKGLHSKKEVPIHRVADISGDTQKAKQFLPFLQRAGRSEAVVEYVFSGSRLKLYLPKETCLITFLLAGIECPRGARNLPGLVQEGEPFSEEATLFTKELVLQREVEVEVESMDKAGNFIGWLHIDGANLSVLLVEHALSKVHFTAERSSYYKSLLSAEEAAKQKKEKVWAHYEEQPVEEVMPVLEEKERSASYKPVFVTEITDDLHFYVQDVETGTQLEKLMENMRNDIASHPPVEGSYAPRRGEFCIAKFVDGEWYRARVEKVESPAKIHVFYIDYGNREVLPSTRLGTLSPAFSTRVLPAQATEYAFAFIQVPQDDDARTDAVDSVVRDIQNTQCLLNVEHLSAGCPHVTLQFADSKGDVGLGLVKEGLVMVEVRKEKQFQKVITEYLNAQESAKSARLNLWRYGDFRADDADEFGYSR
Excerpt: (§2) FIGS. 7A-E represents determination of key regions and residues mediating the MTDH-SND1 interaction. (FIG. 7A) Schematics of MTDH fragments and mutants with indicated SND1-binding capability. + indicates binding and − indicates no binding based on results shown below. Two putative nuclear localization signals are residues 432-451 for NLS2 and residues 561-580 for NLS3. In the enlarged view of the minimal binding region 386-407, 9 residues were targeted for mutagenesis in the current study. […] (FIG. 7B) Pulldown of His6-SND1AC by GST-tagged MTDH fragments with indicated boundaries. The bound proteins were examined by SDS-PAGE and visualized by Coomassie blue staining. (FIG. 7C) Pulldown of His6-SND1ΔC by GST-tagged WT or triple mutant MTDH fragments (364-582). For (FIG. 7B) and (FIG. 7C), 1/10 of the His6-SND1ΔC input was shown, and GST alone was used as a negative control. Representative results of 3 independent experiments are shown. (FIG. 7D, FIG. 7E) Lysates from HEK293T cells expressing the indicated ectopic human SND1, AGO2 or MTDH were immunoprecipitated with anti-Myc and immunoblotted with the indicated antibodies.
(FIG. 22A) In vitro pull-down of SND1 (16-339) by GST-tagged MTDH (364-582) harboring WT or mutant sequence. The proteins bound to GS4B were examined on SDS-PAGE and visualized by Coomassie blue staining. (FIG. 22B) In vitro pull-down of WT and mutant SND1 (16-339) by GST-tagged MTDH (364-582). The bound proteins were examined as in (FIG. 22A). For both (FIG. 22A) and (FIG. 22B), experiments were repeated three times; representative results are shown. The normalized percentage of binding was averaged from three experiments; mean±SEM was shown below the data. (FIG. 22C) HEK293T cells were transfected with human HA-SND1, WT Myc-MTDH or Myc-MTDH with indicated single point mutation. Lysates were immunoprecipitated with anti-Myc antibody and immunoblotted with the indicated antibodies. (FIG. 22D) HEK293T cells were transfected with human Myc-MTDH, WT HA-SND1 or mutant HA-SND1 with indicated single point mutations or deletions. Lysates were immunoprecipitated with anti-Myc and immunoblotted with the indicated antibodies.
Immunoprecipitation and western blot For immunoprecipitation (IP) experiments, cultured cells were washed in cold PBS and lysed in lysis buffer (20 mM Tris pH 7.4, 0.15 M NaCl, 1 mM EDTA, 1 mM EGTA, 1% Tx-100, 0.0025 M Na2P2O7, 1 mM α-glycerolphosphate, 1 mM Na3VO4, and 1 mM NaF) with an EDTA-free protease inhibitor mixture (Roche Applied Science) and PMSF. Cell lysates were then incubated on ice for 10 min, centrifuged, and precleared by incubating with protein A/G beads (Santa Cruz Biotechnology) for 1 h at 4° C. For IP bead preparation, 30 μl of protein A/G beads were incubated with 5 μg of antibodies for 2 h at 4° C. IPs were carried out for overnight at 4° C., and beads were centrifuged, washed and subsequently boiled for 5 min in SDS protein loading buffer to elute bound protein. IP lysates were subjected to western blotting with indicated antibodies.
Immunoprecipitation and western blot: For in vivo immunoprecipitation (IP) experiments, cultured cells were washed in cold PBS and lysed in lysis buffer (20 mM Tris pH 7.4, 0.15 M NaCl, 1 mM EDTA, 1 mM EGTA, 1% Tx-100, 0.0025 M Na2P2O7, 1 mM β-glycerolphosphate, 1 mM Na3VO4, and 1 mM NaF) with an EDTA-free protease inhibitor mixture (Roche Applied Science) and PMSF. Cell lysates were then incubated on ice for 10 min, centrifuged, and precleared by incubating with protein A/G beads (Santa Cruz Biotechnology) for 1 h at 4° C. For IP bead preparation, 30 μl of protein A/G beads were incubated with 5 μg of antibodies for 2 h at 4° C. IPs were carried out for overnight at 4° C., and beads were centrifuged, washed and subsequently boiled for 5 min in SDS protein loading buffer to elute bound protein. IP lysates were subjected to western blotting with indicated antibodies.

AGO2 = target: T3, AGO2 (Homo sapiens, UniProt Q9UKV8); assay: Co-immunoprecipitation of Myc-MTDH mutants with AGO2 in HEK293T cells; assay type: cell-based; conditions: HEK293T cell lysates, anti-Myc immunoprecipitation
T3 construct: expressed in transfected cells; host or cells: HEK293T
T3 sequence (Q9UKV8 whole entry): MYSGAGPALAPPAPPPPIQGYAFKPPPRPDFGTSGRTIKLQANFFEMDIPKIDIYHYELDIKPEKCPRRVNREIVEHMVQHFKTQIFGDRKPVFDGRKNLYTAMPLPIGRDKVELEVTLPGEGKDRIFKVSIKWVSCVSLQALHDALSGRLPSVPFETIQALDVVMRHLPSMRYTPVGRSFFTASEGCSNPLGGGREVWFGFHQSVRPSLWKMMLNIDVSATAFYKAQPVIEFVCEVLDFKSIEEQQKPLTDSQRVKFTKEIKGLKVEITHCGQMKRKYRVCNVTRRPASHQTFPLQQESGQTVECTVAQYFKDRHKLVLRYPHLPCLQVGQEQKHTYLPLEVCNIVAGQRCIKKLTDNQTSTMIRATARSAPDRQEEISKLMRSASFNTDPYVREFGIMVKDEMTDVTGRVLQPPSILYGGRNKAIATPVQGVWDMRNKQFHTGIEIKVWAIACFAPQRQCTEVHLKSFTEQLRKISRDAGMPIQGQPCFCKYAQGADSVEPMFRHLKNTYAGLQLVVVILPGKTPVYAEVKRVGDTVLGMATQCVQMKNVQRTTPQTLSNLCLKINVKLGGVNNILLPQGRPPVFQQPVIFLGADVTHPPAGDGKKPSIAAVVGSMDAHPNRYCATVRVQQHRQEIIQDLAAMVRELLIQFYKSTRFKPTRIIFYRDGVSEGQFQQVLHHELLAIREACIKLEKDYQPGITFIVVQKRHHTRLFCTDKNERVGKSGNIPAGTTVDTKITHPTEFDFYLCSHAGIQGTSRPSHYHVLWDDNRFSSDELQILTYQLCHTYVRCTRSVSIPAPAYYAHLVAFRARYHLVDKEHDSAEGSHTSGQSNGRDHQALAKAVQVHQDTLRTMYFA
Excerpt: as §2, with “antibodies. […]” for “antibodies.”

| Molecule | apoptosis of MECs (PyMT;Mtdh−/− pMECs) | SND1 protein levels (SND1 [1]) | SND1-binding of MTDH fragments and triple mutants, in vitro (SND1 [2]) | interaction of full-length MTDH (WT or mutant) with HA-SND1 (SND1 [3]) | interaction of MTDH mutants with AGO2 (AGO2) |
| --- | --- | --- | --- | --- | --- |
| CC[C@@]1(O)C(=O)OCc2c1cc1n(c2=O)Cc2cc3ccccc3nc2-1 [CPT, camptothecin] | induced apoptosis of MECs in a dosage-dependent manner | drug dosage-dependent decrease of SND1 protein levels | – | – | – |
| B1 | – | – | could not bind | not | still able to interact with AGO2 |
| B2 | – | – | could not bind | not | still able to interact with AGO2 |
